Reference: PMC13323110, “Structure and substrate recognition by the bacterial twin-arginine translocation (Tat) core complex” (Nature Microbiology, 2026)

Columns and labels:
[1] = target: N. salsuginis TatC (GFP-His removed) (Nitratifractor salsuginis); assay: cryo-EM structure; co-expressed TatBC complexes (E. coli, N. salsuginis, M. xanthus) and N. salsuginis TatAC complex, solubilised and purified in GDN
[2] = target: T1, E. coli TatBC complex purified by a Twin-Strep tag on TatC (sample of the TatBC-MdoD structure) (Escherichia coli, UniProt P69425 1-171; P69423 1-258); assay: cryo-EM structure; complex assembled in vitro: Ulp1-cut His6-SUMO-MdoD or -CueO mixed with purified E. coli TatBC or TatABC complex overnight at 4 °C, SEC in 50 mM Tris pH 8.0, 200 mM NaCl, 1 mM EDTA, 0.02% GDN; excess substrate; settings: both partners purified
T1 construct: TatB of Escherichia coli, as m1; TatC of Escherichia coli, as m5; No TatA density was found; source: E. coli, overexpressed TatABC purified solely by the TatC Twin-Strep tag in GDN; only very low levels of TatA in the purified material; copies: 3 + 3
T1 sequence 1: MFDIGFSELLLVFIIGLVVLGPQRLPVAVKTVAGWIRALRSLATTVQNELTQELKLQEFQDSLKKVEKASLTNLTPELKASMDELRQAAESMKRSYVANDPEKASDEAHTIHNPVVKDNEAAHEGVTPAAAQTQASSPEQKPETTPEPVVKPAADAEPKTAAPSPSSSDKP
T1 sequence 2: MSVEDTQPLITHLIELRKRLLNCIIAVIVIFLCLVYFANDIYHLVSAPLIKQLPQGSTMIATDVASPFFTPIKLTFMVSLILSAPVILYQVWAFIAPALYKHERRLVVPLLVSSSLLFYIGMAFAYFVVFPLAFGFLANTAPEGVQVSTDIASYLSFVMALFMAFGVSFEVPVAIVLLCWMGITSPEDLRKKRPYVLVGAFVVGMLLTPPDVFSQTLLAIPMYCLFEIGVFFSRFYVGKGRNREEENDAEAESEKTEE

[3] = target: the molecule itself; assay: as above
[4] = target: the molecule itself; assay: crystal structure; SeMet-labelled isolated periplasmic domain; sitting drop, 21 °C, 0.2 M lithium sulphate, 0.1 M Tris pH 8.5, 10% PEG 8000, 10% PEG 1000
[5] = target: the molecule itself; assay: cryo-EM structure; co-expressed TatBC complexes (E. coli, N. salsuginis, M. xanthus) and N. salsuginis TatAC complex, solubilised and purified in GDN
[6] = target: T2, E. coli TatC with C-terminal Twin-Strep tag, expressed from a tatABC plasmid (Escherichia coli, UniProt P69423 1-258); assay: densitometry of Coomassie-stained SDS-PAGE of purified complexes; purified TatABC (TatA_26(His)6_TatBC) and TatBC (TatBC_(His)6) at four dilutions, bands quantified with ImageJ; settings: both partners purified
T2 construct: TatC of Escherichia coli, PCR from E. coli genomic DNA (DSM 1116); also called TatC_(strep); not shown: Twin-Strep, C-terminal, kept
T2 sequence: T1 sequence 2

[7] = target: T2, E. coli TatC with C-terminal Twin-Strep …; assay: cryo-EM structure; purified E. coli TatABC with an ALFA tag inserted in TatA or TatB, labelled with an anti-ALFA nanobody; 2D class averages and a 6.4 Å map; settings: both partners purified
[8] = target: T3, E. coli TatC of the His-tagged TatBC complex (TatBC_(His)6) (Escherichia coli), P69423; assay: cryo-EM structure; co-expressed TatBC complexes (E. coli, N. salsuginis, M. xanthus) and N. salsuginis TatAC complex, solubilised and purified in GDN; settings: remark: other sources report otherwise
T3 chain: T1 sequence 2

[9] = target: N. salsuginis TatBC complex (Nitratifractor salsuginis); assay: cryo-EM structure; 50 μl N. salsuginis TatBC (A280nm = 8.0) mixed with 50 μl CueO peptide (1 mg/ml), 12 h at 4 °C, in GDN

N. salsuginis TatC (GFP-His removed) (natural protein)
stoichiometry N [1]: 3

B1: E. coli MdoD, full length with its Tat signal peptide (natural protein, Escherichia coli, UniProt P40120 1-551, looked up)
chain: MDRRRFIKGSMAMAAVCGTSGIASLFSQAAFAADSDIADGQTQRFDFSILQSMAHDLAQTAWRGAPRPLPDTLATMTPQAYNSIQYDAEKSLWHNVENRQLDAQFFHMGMGFRRRVRMFSVDPATHLAREIHFRPELFKYNDAGVDTKQLEGQSDLGFAGFRVFKAPELARRDVVSFLGASYFRAVDDTYQYGLSARGLAIDTYTDSKEEFPDFTAFWFDTVKPGATTFTVYALLDSASITGAYKFTIHCEKSQVIMDVENHLYARKDIKQLGIAPMTSMFSCGTNERRMCDTIHPQIHDSDRLSMWRGNGEWICRPLNNPQKLQFNAYTDNNPKGFGLLQLDRDFSHYQDIMGWYNKRPSLWVEPRNKWGKGTIGLMEIPTTGETLDNIVCFWQPEKAVKAGDEFAFQYRLYWSAQPPVHCPLARVMATRTGMGGFSEGWAPGEHYPEKWARRFAVDFVGGDLKAAAPKGIEPVITLSSGEAKQIEILYIEPIDGYRIQFDWYPTSDSTDPVDMRMYLRCQGDAISETWLYQYFPPAPDKRQYVDDRVMS
notes: MdoD of Escherichia coli, precursor with its 32-residue Tat signal peptide; source: E. coli BL21 (DE3) ΔtatABCD ΔtatE, pET28a with N-terminal His6-SUMO, purified (His tag column), cut with Ulp1; not shown: His6, N-terminal, cleaved; SUMO, N-terminal, cleaved
stoichiometry N [2]: 3 MdoD per (TatBC)3 complex | stoichiometry N [3]: 2

B2: M. xanthus TatC periplasmic domain (residues 127-303) (domain or fragment, Myxococcus xanthus, UniProt Q2PHA2 127-303, looked up)
chain: SMFTFLLNEEETLALEQRLDTARLRADDALRFLRLGEAEEAGRIAKETSTQLRAEGQGQAPAPEVAPAASVEMTGRLDGLGRLLDAASVGYGAQSRGVLRQAVEKRVEAVTAYEKKDFAAAAAAMDGSASLLAGIAPTRTEELAGLWRLEKELATAHAAHEAARWTRPMLSMHEQLS
modifications: selenomethionine-labelled
notes: periplasmic domain of TatC of Myxococcus xanthus, residues 127-303; also called M. xanthus insert; source: E. coli B834 (DE3), pET15b, SelenoMethionine media, purified (Ni-NTA, TEV, SEC)
stoichiometry N [4]: 3

B3: E. coli TatB (natural protein, Escherichia coli)
chain: T1 sequence 1
notes: TatB of Escherichia coli, PCR from E. coli genomic DNA (DSM 1116); residues 1-63 modelled in the TatBC structure; source: E. coli MC4100 ΔtatABCD ΔtatE, overexpressed from a plasmid with TatC (and TatA), purified in GDN as part of the complex
binding result [5]: binds | ratio of TatB to TatC in the TatABC complex relative to the TatBC complex [6]: 0.78

B4: E. coli TatB with an inserted ALFA-His tag (natural protein, Escherichia coli, UniProt P69425 1-171, looked up)
chain: T1 sequence 1
notes: TatB of Escherichia coli; also called TatB_(ALFA)
stoichiometry N [7]: 2 TatB per core complex

B5: E. coli TatC of the His-tagged TatBC complex (TatBC_(His)6), P69423 1-258 (natural protein)
chain: T1 sequence 2
stoichiometry N [8]: 3

B6: E. coli TatA with an inserted ALFA-His tag (natural protein, Escherichia coli, UniProt P69428 1-89, looked up)
chain: MGGISIWQLLIIAVIVVLLFGTKKLGSIGSDLGASIKGFKKAMSDDEPKQDKTSQDADFTAKTIADKQADTNQEQAKTEDAKRHDKEQV
notes: TatA of Escherichia coli; also called TatA_(ALFA); TatA_(ALFA,His); not shown: ALFA, internal (in the cytoplasmic part of TatA), kept
stoichiometry N [7]: 1 TatA per core complex

MQRRDFLKYSVALGVASALPLWSRAVFA [E. coli CueO signal peptide (residues 1-28)]
stoichiometry N (signal peptide per TatB and TatC) [9]: 1

B7: M. xanthus TatC (GFP-His removed) (natural protein, Myxococcus xanthus)
chain: MSLADHLTELRSRLMRCTIAVLILGTISLVFAKPIFGLLMQPVLDALPPENRSLIYTSGIEELNVLMKVGVYCGIFLTTPVILMQIWGFVSPGLYPEERRFAAPFVAFGSIAFLLGAAFCYFAVLPSMFTFLLNEEETLALEQRLDTARLRADDALRFLRLGEAEEAGRIAKETSTQLRAEGQGQAPAPEVAPAASVEMTGRLDGLGRLLDAASVGYGAQSRGVLRQAVEKRVEAVTAYEKKDFAAAAAAMDGSASLLAGIAPTRTEELAGLWRLEKELATAHAAHEAARWTRPMLSMHEQLSLVLLLILAFGIIFELPLVMALLGVVGVVKSSWLFRYQRHAFVVCLIAAAIITPTGDVVNLSLMAGPMLLCYELGVLLVWMVERRRARNSAETGITPAS
notes: TatC of Myxococcus xanthus (ATCC 19368), codon-optimised synthetic gene; has a folded periplasmic insert domain
stoichiometry N [5]: 3
